From patent CN116813758A (INST MICROBIOLOGY CAS, dated 2023)

Molecular target: SARS-CoV-2原始毒株的RBD蛋白 (SARS-CoV-2 RBD-his) (SARS-CoV-2原始毒株, UniProt P0DTC2 319-541)

B1: 单链纳米抗体S43 (S43-his蛋白) (VHH)
VHH: QVQLQESGGGLVQPGGSLRLTCAPSGFTLDYYAIGWFRQAPGKEREGVSCISSNNSTYYADSVKGRFTISRDNAKNTVYLQMNSLKPEDTAVYYCAAEPDYSGVYYYTCGWTDFGSWGQGTQVTVSS
- Kd: 0.12 nM
